Results as given in US20090118161A1 (BAYLOR COLLEGE OF MEDICINE, published 2009).

T1: immobilized human fibrinogen (human, UniProt P02671 20-629; P02675 31-491; P02679 27-437, limits assumed)
T1 sequence (looked up) 1: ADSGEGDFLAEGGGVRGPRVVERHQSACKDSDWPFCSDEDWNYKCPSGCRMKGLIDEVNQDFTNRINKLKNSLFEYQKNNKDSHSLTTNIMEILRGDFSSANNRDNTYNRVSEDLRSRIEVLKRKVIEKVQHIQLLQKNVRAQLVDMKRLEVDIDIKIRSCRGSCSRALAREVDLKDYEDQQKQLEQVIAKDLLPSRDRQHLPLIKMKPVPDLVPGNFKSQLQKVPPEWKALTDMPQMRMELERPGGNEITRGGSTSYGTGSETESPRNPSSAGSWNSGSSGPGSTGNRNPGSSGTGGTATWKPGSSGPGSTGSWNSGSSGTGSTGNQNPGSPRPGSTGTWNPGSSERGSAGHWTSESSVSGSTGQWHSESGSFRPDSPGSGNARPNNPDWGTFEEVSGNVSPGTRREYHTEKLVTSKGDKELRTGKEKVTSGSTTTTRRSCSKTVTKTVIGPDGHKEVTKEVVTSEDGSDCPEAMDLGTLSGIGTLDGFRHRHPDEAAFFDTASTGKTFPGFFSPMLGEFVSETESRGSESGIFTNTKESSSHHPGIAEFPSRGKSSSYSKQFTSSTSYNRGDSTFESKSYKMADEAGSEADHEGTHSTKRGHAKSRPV
T1 sequence (looked up) 2: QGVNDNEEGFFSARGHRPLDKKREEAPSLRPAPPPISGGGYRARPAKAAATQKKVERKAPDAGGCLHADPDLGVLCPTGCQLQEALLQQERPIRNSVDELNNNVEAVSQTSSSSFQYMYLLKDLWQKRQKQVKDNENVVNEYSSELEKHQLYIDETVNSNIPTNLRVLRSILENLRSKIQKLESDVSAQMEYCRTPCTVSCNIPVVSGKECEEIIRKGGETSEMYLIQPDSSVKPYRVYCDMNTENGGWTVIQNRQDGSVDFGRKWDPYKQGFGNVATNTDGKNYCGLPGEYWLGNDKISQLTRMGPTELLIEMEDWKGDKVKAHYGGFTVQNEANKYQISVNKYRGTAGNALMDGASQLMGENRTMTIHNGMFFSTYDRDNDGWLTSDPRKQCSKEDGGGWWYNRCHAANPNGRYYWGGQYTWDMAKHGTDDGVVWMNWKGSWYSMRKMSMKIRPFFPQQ
T1 sequence (looked up) 3: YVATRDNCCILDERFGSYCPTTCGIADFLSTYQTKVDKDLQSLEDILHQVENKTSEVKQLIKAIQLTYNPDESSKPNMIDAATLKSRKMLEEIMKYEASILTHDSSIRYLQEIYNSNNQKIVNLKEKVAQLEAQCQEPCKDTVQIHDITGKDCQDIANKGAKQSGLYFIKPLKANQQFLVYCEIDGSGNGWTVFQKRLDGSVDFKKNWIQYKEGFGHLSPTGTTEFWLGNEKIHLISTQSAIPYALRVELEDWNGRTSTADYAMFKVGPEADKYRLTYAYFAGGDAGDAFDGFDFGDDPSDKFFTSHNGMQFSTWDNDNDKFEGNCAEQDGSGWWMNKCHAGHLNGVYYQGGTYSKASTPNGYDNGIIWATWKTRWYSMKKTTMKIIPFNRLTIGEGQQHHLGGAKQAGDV

T2: polymerized human fibrin (human, UniProt P02671 36-629; P02675 45-491; P02679 27-437, limits assumed)
T2 construct: Immobilized polymerized fibrin; preparation not described
T2 sequence (looked up) 1: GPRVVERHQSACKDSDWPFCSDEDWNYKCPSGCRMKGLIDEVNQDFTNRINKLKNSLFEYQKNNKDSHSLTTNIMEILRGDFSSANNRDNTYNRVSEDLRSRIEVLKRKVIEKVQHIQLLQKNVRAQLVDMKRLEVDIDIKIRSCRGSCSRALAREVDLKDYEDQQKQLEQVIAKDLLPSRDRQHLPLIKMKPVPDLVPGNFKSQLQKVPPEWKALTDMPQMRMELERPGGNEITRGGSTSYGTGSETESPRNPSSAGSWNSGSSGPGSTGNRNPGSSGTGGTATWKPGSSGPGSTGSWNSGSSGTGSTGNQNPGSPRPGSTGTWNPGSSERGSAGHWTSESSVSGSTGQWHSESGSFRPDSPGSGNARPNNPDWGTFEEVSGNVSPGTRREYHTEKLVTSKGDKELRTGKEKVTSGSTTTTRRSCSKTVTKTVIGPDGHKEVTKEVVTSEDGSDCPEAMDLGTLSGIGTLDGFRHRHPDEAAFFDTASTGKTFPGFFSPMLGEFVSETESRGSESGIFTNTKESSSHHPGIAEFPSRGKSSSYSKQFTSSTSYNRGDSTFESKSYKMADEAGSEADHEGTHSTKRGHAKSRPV
T2 sequence (looked up) 2: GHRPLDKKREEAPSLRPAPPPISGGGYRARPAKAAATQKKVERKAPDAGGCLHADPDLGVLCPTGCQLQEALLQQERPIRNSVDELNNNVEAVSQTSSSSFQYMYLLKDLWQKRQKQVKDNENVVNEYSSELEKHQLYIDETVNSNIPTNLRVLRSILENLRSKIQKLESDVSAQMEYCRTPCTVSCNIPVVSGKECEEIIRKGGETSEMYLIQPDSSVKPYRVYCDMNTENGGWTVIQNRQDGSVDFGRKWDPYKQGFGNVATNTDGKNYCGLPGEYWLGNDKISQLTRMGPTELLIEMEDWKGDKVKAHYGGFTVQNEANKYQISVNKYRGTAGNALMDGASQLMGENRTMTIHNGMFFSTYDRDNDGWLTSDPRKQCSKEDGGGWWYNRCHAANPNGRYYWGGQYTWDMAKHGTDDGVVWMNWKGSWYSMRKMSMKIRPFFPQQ
T2 sequence (looked up) 3: T1 sequence (looked up) 3

B1: recombinant VWF-A2 domain polypeptide (amino acids G1481-R1668) (other)
chain: GLLGVSTLGPKRNSMVLDVAFVLEGSDKIGEADFNRSKEFMEEVIQRMDVGQDSIHVTVLQYSYMVTVEYPFSEAQSKGDILQRVREIRYQGGNRTNTGLALRYLSDHSFLVSQGDREQAPNLVYMVTGNPASDEIKRLPGDIQVVPIGVGPNANVQELERIGWPNAPILIQDFETLPREAPDLVLQR
notes: Expressed in E. coli as a fusion protein with a His tag at the N terminus; monomeric on SDS-PAGE; also called A2 protein; VWF-A2 protein; not shown: N-terminal His tag from the vector
B2: N-terminal fragment polypeptide of A2 (A2 G1481-Y1605) (other)
chain: GLLGVSTLGPKRNSMVLDVAFVLEGSDKIGEADFNRSKEFMEEVIQRMDVGQDSIHVTVLQYSYMVTVEYPFSEAQSKGDILQRVREIRYQGGNRTNTGLALRYLSDHSFLVSQGDREQAPNLVY
notes: Expressed in bacteria; also called N-terminal (half) of the A2 domain of VWF

Assays:
[1] = target: T3, recombinant VWF-A1 domain polypeptide (amino acids Q1238-P1471) (human, UniProt P04275 1238-1471); assay: inhibition by A2 of binding of A1 domain (0.25 µM) to immobilized fixed platelets (GPIbα), static conditions
T3 construct: range 1238-1471; Expressed in E. coli with an N-terminal His tag; also called A1 polypeptide; A1 protein; not shown: N-terminal His tag from the vector

[2] = target: T1, immobilized human fibrinogen; assay: ELISA, increasing A2 on immobilized human fibrin(ogen), anti-His detection; half-maximal binding
[3] = target: T3, recombinant VWF-A1 domain polypeptide …; assay: binding of A2 to immobilized A1 domain polypeptide; half-maximal binding
polymerized human fibrin = target: T2, polymerized human fibrin; assay: ELISA, increasing A2 on immobilized polymerized human fibrin, anti-His detection; half-maximal binding
[4] = target: T3, recombinant VWF-A1 domain polypeptide …; assay: ELISA, A2 on immobilized A1; apparent KD
[5] = target: T4, multimeric von Willebrand factor purified from plasma or cryoprecipitate (UniProt P04275 764-2813); assay: ELISA, increasing A2 on immobilized plasma VWF, anti-His detection; half-maximal binding
T4 construct: mature; Disulfide-linked multimer of many subunits; number of subunits not fixed; Glycosylated; also called VWF; full length VWF

[6] = target: T4, multimeric von Willebrand factor …; assay: binding of A2 to full length VWF; half-maximal binding
[7] = target: T3, recombinant VWF-A1 domain polypeptide …; assay: ELISA, increasing A2 on immobilized A1 polypeptide, Anti-A2 detection; half-maximal binding
[8] = target: T4, multimeric von Willebrand factor …; assay: binding of A2 to immobilized full length VWF; half-maximal binding
[9] = target: T5, recombinant human vimentin (human, UniProt P08670 1-466, limits assumed); assay: ELISA, A2 on immobilized recombinant human vimentin, detected with Anti-A2 or VP-1
T5 construct: also called immobilized vimentin

[10] = target: T4, multimeric von Willebrand factor …; assay: ELISA, A2 on immobilized VWF; apparent KD
[11] = target: T3, recombinant VWF-A1 domain polypeptide …; assay: binding of A2 to A1 domain polypeptide; half-maximal binding
[12] = target: T5, recombinant human vimentin; assay: ELISA, A2 fragments on immobilized vimentin

T5 sequence (P08670 whole entry): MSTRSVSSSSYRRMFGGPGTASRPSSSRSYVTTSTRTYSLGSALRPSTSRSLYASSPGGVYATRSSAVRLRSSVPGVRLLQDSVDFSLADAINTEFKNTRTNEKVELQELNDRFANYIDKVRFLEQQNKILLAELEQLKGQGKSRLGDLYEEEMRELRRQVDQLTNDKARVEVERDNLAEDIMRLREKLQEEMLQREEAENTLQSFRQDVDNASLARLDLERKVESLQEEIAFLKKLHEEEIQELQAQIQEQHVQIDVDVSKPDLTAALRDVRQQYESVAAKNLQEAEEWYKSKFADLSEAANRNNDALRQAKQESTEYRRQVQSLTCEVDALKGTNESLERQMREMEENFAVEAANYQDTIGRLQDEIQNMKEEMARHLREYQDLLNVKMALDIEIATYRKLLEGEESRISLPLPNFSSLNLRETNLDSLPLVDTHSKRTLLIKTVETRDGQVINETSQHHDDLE

| Binder | IC50 [1] [nM] | EC50 [2] [nM] | EC50 [3] [nM] | EC50 (polymerized human fibrin) [nM] | Kd [4] [nM] | EC50 [5] [nM] | EC50 [6] [nM] | EC50 [7] [nM] | EC50 [8] [nM] | binding result [9] | Kd [10] [nM] | EC50 [11] [nM] | binding result [12] |
| --- | --- | --- | --- | --- | --- | --- | --- | --- | --- | --- | --- | --- | --- |
| B1 | 300 | 150 | 65 | 150 | ~50 | ~200 | 160 | ~65 | 190 | binds | ~200 | 60 | – |
| B2 | – | – | – | – | – | – | – | – | – | – | – | – | binds |
